Data published in publication PMC6078952.

Assays:
[1] = target: recombinant human propeptide of lysyl oxidase (LOX-PP) (human) (UniProt P28300); test: SPR; Biacore T100 or T200, 25 °C, HBS pH 7.4 with 0.05% P20; LOX-PP covalently immobilised on a CM5 chip via amino groups, plasminogen as analyte; single-cycle kinetics, 2-state model, n = 2
[2] = target: Tropoelastin (UniProt P15502); test: SPR; Biacore T100 or T200, 25 °C, HBS pH 7.4 with 0.05% P20; tropoelastin covalently immobilised on a CM5 chip via amino groups, LOX-PP as analyte; single-cycle kinetics, 2-state model
Chain of Tropoelastin (P15502 27-786): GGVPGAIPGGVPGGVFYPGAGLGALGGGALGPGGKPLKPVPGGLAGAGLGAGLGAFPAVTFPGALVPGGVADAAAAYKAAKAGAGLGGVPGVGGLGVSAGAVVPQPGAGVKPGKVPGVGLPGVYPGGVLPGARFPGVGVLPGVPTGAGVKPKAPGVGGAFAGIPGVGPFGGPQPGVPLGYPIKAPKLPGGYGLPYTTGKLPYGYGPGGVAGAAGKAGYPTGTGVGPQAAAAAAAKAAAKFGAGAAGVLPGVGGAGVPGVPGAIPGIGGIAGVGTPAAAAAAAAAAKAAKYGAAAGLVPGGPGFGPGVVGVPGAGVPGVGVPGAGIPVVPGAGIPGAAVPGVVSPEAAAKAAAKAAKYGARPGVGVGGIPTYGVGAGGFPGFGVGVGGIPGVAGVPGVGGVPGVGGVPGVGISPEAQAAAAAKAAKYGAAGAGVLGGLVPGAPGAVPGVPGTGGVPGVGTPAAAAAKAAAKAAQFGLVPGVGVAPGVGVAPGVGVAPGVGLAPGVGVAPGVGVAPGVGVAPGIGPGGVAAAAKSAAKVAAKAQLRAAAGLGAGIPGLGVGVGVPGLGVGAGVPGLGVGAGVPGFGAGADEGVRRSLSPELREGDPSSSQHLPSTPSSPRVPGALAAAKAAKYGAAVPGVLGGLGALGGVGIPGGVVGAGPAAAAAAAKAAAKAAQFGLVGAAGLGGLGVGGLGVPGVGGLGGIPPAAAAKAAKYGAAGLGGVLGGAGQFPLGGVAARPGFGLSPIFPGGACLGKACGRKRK

Chain of recombinant human propeptide of lysyl oxidase (LOX-PP) (human) (P28300 22-168 P24L): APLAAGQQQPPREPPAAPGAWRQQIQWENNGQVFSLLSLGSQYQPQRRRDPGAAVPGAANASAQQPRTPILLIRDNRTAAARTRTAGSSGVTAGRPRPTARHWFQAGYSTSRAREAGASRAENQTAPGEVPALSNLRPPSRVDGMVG

| Kd [1] | ka of the first step (2-state model) [1] | ka of the second step (2-state model) [1] | kd of the first step (2-state model) [1] | kd of the second step (2-state model) [1] | Kd [2] | ka of the first step (2-state model) [2] | ka of the second step (2-state model) [2] | kd of the first step (2-state model) [2] | kd of the second step (2-state model) [2] | Substance |
| --- | --- | --- | --- | --- | --- | --- | --- | --- | --- | --- |
| 15.8 nM | 41700 M⁻¹ s⁻¹ | 0.00214 s⁻¹ | 0.00515 s⁻¹ | 0.000306 s⁻¹ |  |  |  |  |  | Plasminogen (natural protein) |
|  |  |  |  |  | 1.39 nM | 331 M⁻¹ s⁻¹ | 0.003 s⁻¹ | 0.0043 s⁻¹ | 3.1e-07 s⁻¹ | recombinant human propeptide of lysyl oxidase (LOX-PP) (from UniProt P28300 22-168) (domain or fragment) |
